In the Human Domainome abundance scans (Beltran et al. 2025) one finds abundance fitness data, which are given here for 96 substances.

± gives the uncertainty stated by the source.

A short description of this data set: abundance fitness (aPCA) (normalised: wild type 0, dead -1); higher = more abundant; growth selection in yeast, the domain comes from the species named. The following applies: Homo sapiens.
For the substance “Scaffold attachment factor B2 L56Q, Q14151”, the abundance fitness is -0.378 ± 0.28.

On to “Scaffold attachment factor B2 L56R, Q14151”, for which the abundance fitness is -0.39 ± 0.07.

Substance “Scaffold attachment factor B2 L56S, Q14151” had an abundance fitness of -0.434 ± 0.1.

“Scaffold attachment factor B2 L56T, Q14151” displayed an abundance fitness of -0.546 ± 0.12.

Regarding “Scaffold attachment factor B2 L56V, Q14151”, the abundance fitness is -0.369 ± 0.082.

Regarding “Scaffold attachment factor B2 L56W, Q14151”, the abundance fitness is -0.631 ± 0.086.

In turn, “Scaffold attachment factor B2 L56Y, Q14151” had an abundance fitness of -1.01 ± 0.23.

Substance “Scaffold attachment factor B2 L60A, Q14151” yielded an abundance fitness of -0.323 ± 0.094.

As for “Scaffold attachment factor B2 L60C, Q14151”, the abundance fitness was -0.691 ± 0.14.

Take “Scaffold attachment factor B2 L60D, Q14151”: the abundance fitness is -0.019 ± 0.14.

Substance “Scaffold attachment factor B2 L60F, Q14151” yielded an abundance fitness of -0.448 ± 0.16.

“Scaffold attachment factor B2 L60G, Q14151” gave an abundance fitness of -0.25 ± 0.084.

On to “Scaffold attachment factor B2 L60K, Q14151”, for which the abundance fitness is -0.204 ± 0.14.

For the substance “Scaffold attachment factor B2 L60M, Q14151”, the abundance fitness was -0.343 ± 0.15.

“Scaffold attachment factor B2 L60N, Q14151” displayed an abundance fitness of -0.35 ± 0.22.

“Scaffold attachment factor B2 L60P, Q14151” registered an abundance fitness of -0.102 ± 0.14.

Consider “Scaffold attachment factor B2 L60Q, Q14151”, for which the abundance fitness is -0.271 ± 0.15.

Substance “Scaffold attachment factor B2 L60S, Q14151” had an abundance fitness of -0.398 ± 0.16.

In turn, “Scaffold attachment factor B2 L60V, Q14151” yielded an abundance fitness of -0.361 ± 0.09.

In turn, “Scaffold attachment factor B2 M57A, Q14151” registered an abundance fitness of -0.454 ± 0.087.

In turn, “Scaffold attachment factor B2 M57C, Q14151” came in with an abundance fitness of -0.504 ± 0.12.

In turn, “Scaffold attachment factor B2 M57D, Q14151” had an abundance fitness of -0.788 ± 0.18.

“Scaffold attachment factor B2 M57E, Q14151”: the abundance fitness was -0.292 ± 0.11.

“Scaffold attachment factor B2 M57G, Q14151” yielded an abundance fitness of -0.631 ± 0.09.

Substance “Scaffold attachment factor B2 M57H, Q14151” returned an abundance fitness of -0.392 ± 0.14.

Turning to “Scaffold attachment factor B2 M57I, Q14151”, the abundance fitness is -0.319 ± 0.099.

The substance “Scaffold attachment factor B2 M57K, Q14151” returned an abundance fitness of -0.473 ± 0.13.

The substance “Scaffold attachment factor B2 M57L, Q14151” displayed an abundance fitness of -0.088 ± 0.11.

“Scaffold attachment factor B2 M57N, Q14151” showed an abundance fitness of -0.492 ± 0.14.

The substance “Scaffold attachment factor B2 M57P, Q14151” came in with an abundance fitness of -0.66 ± 0.093.

Consider “Scaffold attachment factor B2 M57Q, Q14151”, for which the abundance fitness is -0.364 ± 0.094.

In turn, “Scaffold attachment factor B2 M57S, Q14151” displayed an abundance fitness of -0.49 ± 0.088.

For “Scaffold attachment factor B2 M57T, Q14151”, the abundance fitness is -0.363 ± 0.1.

“Scaffold attachment factor B2 M57V, Q14151” displayed an abundance fitness of -0.189 ± 0.08.

“Scaffold attachment factor B2 M57W, Q14151” registered an abundance fitness of -0.791 ± 0.11.

Regarding “Scaffold attachment factor B2 N46A, Q14151”, the abundance fitness was -0.317 ± 0.076.

In turn, “Scaffold attachment factor B2 N46C, Q14151” came in with an abundance fitness of -0.656 ± 0.12.

Regarding “Scaffold attachment factor B2 N46D, Q14151”, the abundance fitness was -0.104 ± 0.12.

With “Scaffold attachment factor B2 N46E, Q14151”, the abundance fitness is -0.131 ± 0.092.

For the substance “Scaffold attachment factor B2 N46G, Q14151”, the abundance fitness is 0.006 ± 0.084.

“Scaffold attachment factor B2 N46H, Q14151” gave an abundance fitness of -0.432 ± 0.16.

In turn, “Scaffold attachment factor B2 N46K, Q14151” came in with an abundance fitness of -0.214 ± 0.088.

In turn, “Scaffold attachment factor B2 N46L, Q14151” yielded an abundance fitness of -0.355 ± 0.087.

“Scaffold attachment factor B2 N46M, Q14151” registered an abundance fitness of -0.394 ± 0.17.

As to “Scaffold attachment factor B2 N46P, Q14151”, the abundance fitness is -0.514 ± 0.087.

Substance “Scaffold attachment factor B2 N46Q, Q14151” gave an abundance fitness of 0.023 ± 0.14.

Consider “Scaffold attachment factor B2 N46R, Q14151”, for which the abundance fitness is -0.358 ± 0.073.

In the case of “Scaffold attachment factor B2 N46S, Q14151”, the abundance fitness was -0.135 ± 0.088.

Consider “Scaffold attachment factor B2 N46T, Q14151”, for which the abundance fitness was -0.444 ± 0.099.

Consider “Scaffold attachment factor B2 N46V, Q14151”, for which the abundance fitness is -0.515 ± 0.081.

For “Scaffold attachment factor B2 N46W, Q14151”, the abundance fitness was -1.28 ± 0.2.

In the case of “Scaffold attachment factor B2 N46Y, Q14151”, the abundance fitness is -0.484 ± 0.11.

The substance “Scaffold attachment factor B2 N52A, Q14151” yielded an abundance fitness of -0.132 ± 0.088.

For the substance “Scaffold attachment factor B2 N52D, Q14151”, the abundance fitness turned out to be 0.11 ± 0.13.

“Scaffold attachment factor B2 N52E, Q14151” had an abundance fitness of 0.123 ± 0.11.

On to “Scaffold attachment factor B2 N52F, Q14151”, for which the abundance fitness was -0.701 ± 0.18.

For the substance “Scaffold attachment factor B2 N52G, Q14151”, the abundance fitness was -0.037 ± 0.087.

On to “Scaffold attachment factor B2 N52H, Q14151”, for which the abundance fitness is -0.719 ± 0.14.

Consider “Scaffold attachment factor B2 N52I, Q14151”, for which the abundance fitness was -0.237 ± 0.12.

On to “Scaffold attachment factor B2 N52K, Q14151”, for which the abundance fitness was -0.123 ± 0.093.

Substance “Scaffold attachment factor B2 N52L, Q14151” had an abundance fitness of -0.511 ± 0.081.

“Scaffold attachment factor B2 N52M, Q14151” gave an abundance fitness of -0.442 ± 0.11.

For “Scaffold attachment factor B2 N52P, Q14151”, the abundance fitness is -0.074 ± 0.088.

Substance “Scaffold attachment factor B2 N52Q, Q14151” returned an abundance fitness of -0.63 ± 0.31.

“Scaffold attachment factor B2 N52R, Q14151” displayed an abundance fitness of -0.229 ± 0.081.

The substance “Scaffold attachment factor B2 N52T, Q14151” gave an abundance fitness of -0.037 ± 0.093.

With “Scaffold attachment factor B2 N52V, Q14151”, the abundance fitness was -0.116 ± 0.089.

In turn, “Scaffold attachment factor B2 N52W, Q14151” yielded an abundance fitness of -1.06 ± 0.13.

Substance “Scaffold attachment factor B2 N52Y, Q14151” returned an abundance fitness of -0.587 ± 0.28.

As to “Scaffold attachment factor B2 Q69A, Q14151”, the abundance fitness was -0.094 ± 0.13.

“Scaffold attachment factor B2 Q69C, Q14151” returned an abundance fitness of -0.307 ± 0.2.

Turning to “Scaffold attachment factor B2 Q69F, Q14151”, the abundance fitness is -0.656 ± 0.2.

Turning to “Scaffold attachment factor B2 Q69G, Q14151”, the abundance fitness came out at 0.174 ± 0.095.

“Scaffold attachment factor B2 Q69H, Q14151”: the abundance fitness was -0.143 ± 0.2.

Substance “Scaffold attachment factor B2 Q69I, Q14151” came in with an abundance fitness of -0.262 ± 0.11.

Take “Scaffold attachment factor B2 Q69K, Q14151”: the abundance fitness is -0.164 ± 0.1.

“Scaffold attachment factor B2 Q69L, Q14151” registered an abundance fitness of -0.133 ± 0.11.

“Scaffold attachment factor B2 Q69M, Q14151”: the abundance fitness is -0.27 ± 0.19.

As to “Scaffold attachment factor B2 Q69N, Q14151”, the abundance fitness was -0.717 ± 0.32.

The substance “Scaffold attachment factor B2 Q69P, Q14151” gave an abundance fitness of -0.227 ± 0.15.

For “Scaffold attachment factor B2 Q69R, Q14151”, the abundance fitness is -0.104 ± 0.074.

“Scaffold attachment factor B2 Q69S, Q14151” came in with an abundance fitness of -0.077 ± 0.11.

As for “Scaffold attachment factor B2 Q69T, Q14151”, the abundance fitness is -0.261 ± 0.12.

The substance “Scaffold attachment factor B2 Q69V, Q14151” registered an abundance fitness of -0.175 ± 0.11.

“Scaffold attachment factor B2 Q69W, Q14151”: the abundance fitness is -0.285 ± 0.13.

Take “Scaffold attachment factor B2 R28A, Q14151”: the abundance fitness is -0.139 ± 0.094.

On to “Scaffold attachment factor B2 R28C, Q14151”, for which the abundance fitness was -0.271 ± 0.15.

Turning to “Scaffold attachment factor B2 R28D, Q14151”, the abundance fitness stood at 0.131 ± 0.081.

For “Scaffold attachment factor B2 R28E, Q14151”, the abundance fitness amounted to 0.088 ± 0.1.

For the substance “Scaffold attachment factor B2 R28G, Q14151”, the abundance fitness was 0.05 ± 0.071.

Substance “Scaffold attachment factor B2 R28H, Q14151” returned an abundance fitness of 0.063 ± 0.2.

In turn, “Scaffold attachment factor B2 R28I, Q14151” returned an abundance fitness of -0.342 ± 0.18.

As for “Scaffold attachment factor B2 R28K, Q14151”, the abundance fitness was -0.033 ± 0.14.

In turn, “Scaffold attachment factor B2 R28L, Q14151” showed an abundance fitness of -0.176 ± 0.11.

As to “Scaffold attachment factor B2 R28N, Q14151”, the abundance fitness is -0.005 ± 0.15.

Substance “Scaffold attachment factor B2 R28P, Q14151” displayed an abundance fitness of -0.437 ± 0.22.
